Residue numbers refer to the chain shown, from its start. Names and notes keep the numbering of the source.
T1: ComA (Bacillus subtilis, UniProt P14204 1-214)
T1 sequence: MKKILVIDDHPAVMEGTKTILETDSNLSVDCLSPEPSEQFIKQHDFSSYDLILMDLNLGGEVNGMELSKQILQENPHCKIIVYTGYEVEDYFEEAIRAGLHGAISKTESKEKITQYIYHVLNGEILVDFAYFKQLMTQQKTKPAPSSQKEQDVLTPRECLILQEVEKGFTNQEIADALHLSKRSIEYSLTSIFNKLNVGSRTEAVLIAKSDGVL

T2: ComA;RNA polymerase alpha subunit (Bacillus subtilis;Bacillus subtilis, UniProt P14204;P20429 1-214;1-314, |)
T2 sequence 1: T1 sequence
T2 sequence 2: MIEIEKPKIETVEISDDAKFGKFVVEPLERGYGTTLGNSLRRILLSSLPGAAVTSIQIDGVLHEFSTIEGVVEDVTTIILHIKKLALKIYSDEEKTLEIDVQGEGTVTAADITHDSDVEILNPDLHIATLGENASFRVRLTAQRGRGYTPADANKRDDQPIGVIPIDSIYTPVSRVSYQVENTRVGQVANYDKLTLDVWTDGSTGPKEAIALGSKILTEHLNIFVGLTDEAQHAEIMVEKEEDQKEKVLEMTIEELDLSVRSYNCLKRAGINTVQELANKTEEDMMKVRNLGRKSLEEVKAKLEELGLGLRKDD

B1: PDR ex7 (RE4 T1C) (dsDNA)
DNA 1: AAACTGGAATCGAAACTTTGCGGCCATTCTGCGGTGATAAAAACATTTTT
DNA 2: AAAAATGTTTTTATCACCGCAGAATGGCCGCAAAGTTTCGATTCCAGTTT
B2: PIR (perfect inverted repeat) (dsDNA)
DNA 1: ATGTTTAGTGGAAATGATTGCGGCATCCCGCAAAAAATATTGCTGTAAAT
DNA 2: ATTTACAGCAATATTTTTTGCGGGATGCCGCAATCATTTCCACTAAACAT
B3: PDR (perfect direct repeat) (dsDNA)
DNA 1: B1 DNA 1 with C29T
DNA 2: B1 DNA 2 with G22A
B4: PDR G3T (dsDNA)
DNA 1: B1 DNA 1 with C29T, G31T
DNA 2: B1 DNA 2 with C20A, G22A
B5: PIR C4A (dsDNA)
DNA 1: B2 DNA 1 with C31A
DNA 2: B2 DNA 2 with G20T
B6: Ppel DR2 only (dsDNA)
DNA 1: CGGCCGGTTTTTTTTTTTGCGGTCTTTGCGGTGGGAGTCTTTAGAAT
DNA 2: ATTCTAAAGACTCCCACCGCAAAGACCGCAAAAAAAAAAACCGGCCG
B7: PIR n3 (dsDNA)
DNA 1: ATGTTTAGTGGAAATGATTGCGGCATCCGCAAAAAATATTGCTGTAAAT
DNA 2: ATTTACAGCAATATTTTTTGCGGATGCCGCAATCATTTCCACTAAACAT
B8: PIR n14 (dsDNA)
DNA 1: ATGTTTAGTGGAAATGATTGCGGCATCTCCACATACCCCGCAAAAAATATTGCTGTAAAT
DNA 2: ATTTACAGCAATATTTTTTGCGGGGTATGTGGAGATGCCGCAATCATTTCCACTAAACAT
B9: PIR n2 (dsDNA)
DNA 1: ATGTTTAGTGGAAATGATTGCGGCACCGCAAAAAATATTGCTGTAAAT
DNA 2: ATTTACAGCAATATTTTTTGCGGTGCCGCAATCATTTCCACTAAACAT
B10: PIR n10 (dsDNA)
DNA 1: ATGTTTAGTGGAAATGATTGCGGCATCTCCACACCGCAAAAAATATTGCTGTAAAT
DNA 2: ATTTACAGCAATATTTTTTGCGGTGTGGAGATGCCGCAATCATTTCCACTAAACAT
B11: PDR n1 (dsDNA)
DNA 1: AAACTGGAATCGAAACTTTGCGGCTTGCGGTGATAAAAACATTTTT
DNA 2: AAAAATGTTTTTATCACCGCAAGCCGCAAAGTTTCGATTCCAGTTT
B12: PDR n9 (dsDNA)
DNA 1: AAACTGGAATCGAAACTTTGCGGCCATTACCATTGCGGTGATAAAAACATTTTT
DNA 2: AAAAATGTTTTTATCACCGCAATGGTAATGGCCGCAAAGTTTCGATTCCAGTTT
B13: PDR n3 (dsDNA)
DNA 1: AAACTGGAATCGAAACTTTGCGGCCATTGCGGTGATAAAAACATTTTT
DNA 2: AAAAATGTTTTTATCACCGCAATGGCCGCAAAGTTTCGATTCCAGTTT
B14: Ppel IR-DR core (dsDNA)
DNA 1: GGATTTTGCAGAATGCCGCAATAGGATAGCGGAACATTTTCGGTTCTG
DNA 2: CAGAACCGAAAATGTTCCGCTATCCTATTGCGGCATTCTGCAAAATCC
B15: PDR n7 (dsDNA)
DNA 1: AAACTGGAATCGAAACTTTGCGGCCATTACTTGCGGTGATAAAAACATTTTT
DNA 2: AAAAATGTTTTTATCACCGCAAGTAATGGCCGCAAAGTTTCGATTCCAGTTT
B16: PIR n1 (dsDNA)
DNA 1: ATGTTTAGTGGAAATGATTGCGGCCCGCAAAAAATATTGCTGTAAAT
DNA 2: ATTTACAGCAATATTTTTTGCGGGCCGCAATCATTTCCACTAAACAT
B17: Ppel DR1 only (dsDNA)
DNA 1: CGGCCTTTTGGTTTTTTTGCGGTCTGGCTGTTGGGAGTCTTTAGAAT
DNA 2: ATTCTAAAGACTCCCAACAGCCAGACCGCAAAAAAACCAAAAGGCCG
B18: PIR n8 (dsDNA)
DNA 1: ATGTTTAGTGGAAATGATTGCGGCATCTCCACCGCAAAAAATATTGCTGTAAAT
DNA 2: ATTTACAGCAATATTTTTTGCGGTGGAGATGCCGCAATCATTTCCACTAAACAT
B19: PIR n6 (dsDNA)
DNA 1: ATGTTTAGTGGAAATGATTGCGGCATCTCCCGCAAAAAATATTGCTGTAAAT
DNA 2: ATTTACAGCAATATTTTTTGCGGGAGATGCCGCAATCATTTCCACTAAACAT
B20: PDR n10 (dsDNA)
DNA 1: AAACTGGAATCGAAACTTTGCGGCCATTACCATTTGCGGTGATAAAAACATTTTT
DNA 2: AAAAATGTTTTTATCACCGCAAATGGTAATGGCCGCAAAGTTTCGATTCCAGTTT
B21: Ppel DR3 only (dsDNA)
DNA 1: CGGCCGGTTTTTTTTTGGCTGTTCTTTGCGGTGGGATTTTGCAGAAT
DNA 2: ATTCTGCAAAATCCCACCGCAAAGAACAGCCAAAAAAAAACCGGCCG
B22: PDR n2 (dsDNA)
DNA 1: AAACTGGAATCGAAACTTTGCGGCCTTGCGGTGATAAAAACATTTTT
DNA 2: AAAAATGTTTTTATCACCGCAAGGCCGCAAAGTTTCGATTCCAGTTT
B23: PDR n15 (dsDNA)
DNA 1: AAACTGGAATCGAAACTTTGCGGCCATTACCATCTACTTTGCGGTGATAAAAACATTTTT
DNA 2: AAAAATGTTTTTATCACCGCAAAGTAGATGGTAATGGCCGCAAAGTTTCGATTCCAGTTT

Each binder was assayed against T1, ComA (assay: EMSA; EMSA: 10 mM HEPES pH 7.6, 2 mM MgCl2, 0.1 mM EDTA, 200 mM KCl, 5 mM DTT, 10% glycerol; 10 ng DNA in 15 ul, 20 min, room temperature). Settings: protein: recombinant; tags: N-terminal His6 (from expression primer); chain copies: 2; label: 5' biotin on strand 1; blunt.

Question: Which binding signal does the source give for B1 here?
Answer: Its binding signal is ~2 fold reduced affinity.

What follows are binders tested against T1, ComA (assay: EMSA; complex at 1.2 uM or more; affinity similar to PDR; EMSA: 10 mM HEPES pH 7.6, 2 mM MgCl2, 0.1 mM EDTA, 200 mM KCl, 5 mM DTT, 10% glycerol; 10 ng DNA in 15 ul, 20 min, room temperature). Settings: protein: recombinant; tags: N-terminal His6 (from expression primer); chain copies: 2; label: 5' biotin on strand 1; blunt.

Question: Does B2 bind?
Answer: Result: binds

These binders were tested against T3, ComA;sigma factor sigmaA (Bacillus subtilis;Bacillus subtilis, UniProt P14204;P06224 1-214;1-371, |) (assay: EMSA; supershift, same sigmaA concentration as PDR; EMSA: 10 mM HEPES pH 7.6, 2 mM MgCl2, 0.1 mM EDTA, 200 mM KCl, 5 mM DTT, 10% glycerol; 10 ng DNA in 15 ul, 20 min, room temperature). Settings: protein: recombinant;recombinant; tags: N-terminal His6 (from expression primer);N-terminal His6 (from expression primer); chain copies: 2;1; label: 5' biotin on strand 1; blunt.
T3 sequence (P06224 whole entry, one chain of several): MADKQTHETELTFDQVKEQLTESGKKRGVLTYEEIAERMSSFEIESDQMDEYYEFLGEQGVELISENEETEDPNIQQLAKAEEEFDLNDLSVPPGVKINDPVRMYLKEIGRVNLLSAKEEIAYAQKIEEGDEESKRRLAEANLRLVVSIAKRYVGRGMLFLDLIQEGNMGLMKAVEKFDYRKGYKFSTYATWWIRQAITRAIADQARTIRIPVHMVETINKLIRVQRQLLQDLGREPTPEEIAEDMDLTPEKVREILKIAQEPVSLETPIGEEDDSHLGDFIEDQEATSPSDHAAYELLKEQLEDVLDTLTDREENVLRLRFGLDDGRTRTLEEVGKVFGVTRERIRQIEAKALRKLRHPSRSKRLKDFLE

Question: Does B2 bind?
Answer: Result: binds

Each binder was assayed against T2, ComA;RNA polymerase alpha subunit (assay: EMSA; supershift; EMSA: 10 mM HEPES pH 7.6, 2 mM MgCl2, 0.1 mM EDTA, 200 mM KCl, 5 mM DTT, 10% glycerol; 10 ng DNA in 15 ul, 20 min, room temperature). Settings: protein: recombinant;recombinant; tags: N-terminal His6 (from expression primer);N-terminal His6 (from expression primer); label: 5' biotin on strand 1; blunt.

Question: Does B3 bind?
Answer: Result: binds

Biological target: T1, ComA
Experiment: EMSA; EMSA: 10 mM HEPES pH 7.6, 2 mM MgCl2, 0.1 mM EDTA, 200 mM KCl, 5 mM DTT, 10% glycerol; 10 ng DNA in 15 ul, 20 min, room temperature
Settings: protein: recombinant; tags: N-terminal His6 (from expression primer); chain copies: 2; label: 5' biotin on strand 1; blunt
Remark: another data set of the same source

Question: B4 was tested. Which binding signal did it give?
Answer: The binding signal was ~2 fold reduced affinity.

Question: Which binding signal does the source give for B5 here?
Answer: The binding signal was ~2 fold reduced affinity.

Biological target: T1, ComA
Experiment: as above
Settings: protein: recombinant; tags: N-terminal His6 (from expression primer); chain copies: 2; label: 5' biotin on strand 1; blunt
Remark: another data set of the same source

Question: Does B6 bind?
Answer: Result: no binding

Question: Does B7 bind?
Answer: Result: no binding

Question: Does B8 bind?
Answer: Result: no binding

Question: Does B9 bind?
Answer: Result: no binding

Question: Does B10 bind?
Answer: Result: no binding

Question: Does B11 bind?
Answer: Result: no binding

Question: Does B12 bind?
Answer: Result: no binding

Question: Does B13 bind?
Answer: Result: no binding

Question: Does B14 bind?
Answer: Result: binds

Question: Does B15 bind?
Answer: Result: no binding

Question: Does B16 bind?
Answer: Result: no binding

Question: Does B17 bind?
Answer: Result: no binding

Question: Does B18 bind?
Answer: Result: no binding

Question: Does B19 bind?
Answer: Result: no binding

Question: Does B20 bind?
Answer: Result: no binding

Question: Does B21 bind?
Answer: Result: no binding

Question: Does B22 bind?
Answer: Result: no binding

Question: Does B23 bind?
Answer: Result: no binding

The binders below were run against T2, ComA;RNA polymerase alpha subunit (assay: EMSA; supershift, same alpha concentration as PDR; EMSA: 10 mM HEPES pH 7.6, 2 mM MgCl2, 0.1 mM EDTA, 200 mM KCl, 5 mM DTT, 10% glycerol; 10 ng DNA in 15 ul, 20 min, room temperature). Settings: protein: recombinant;recombinant; tags: N-terminal His6 (from expression primer);N-terminal His6 (from expression primer); label: 5' biotin on strand 1; blunt.

Question: Does B2 bind?
Answer: Result: binds

What follows are binders tested against T3, ComA;sigma factor sigmaA (assay: EMSA; supershift, lower mobility than PIR; EMSA: 10 mM HEPES pH 7.6, 2 mM MgCl2, 0.1 mM EDTA, 200 mM KCl, 5 mM DTT, 10% glycerol; 10 ng DNA in 15 ul, 20 min, room temperature). Settings: protein: recombinant;recombinant; tags: N-terminal His6 (from expression primer);N-terminal His6 (from expression primer); chain copies: 2;1; label: 5' biotin on strand 1; blunt.

Question: Does B3 bind?
Answer: Result: binds

What follows are binders tested against T1, ComA (assay: EMSA; complex at 1.2 uM or more; affinity similar to PIR; EMSA: 10 mM HEPES pH 7.6, 2 mM MgCl2, 0.1 mM EDTA, 200 mM KCl, 5 mM DTT, 10% glycerol; 10 ng DNA in 15 ul, 20 min, room temperature). Settings: protein: recombinant; tags: N-terminal His6 (from expression primer); chain copies: 2; label: 5' biotin on strand 1; blunt.

Question: Does B3 bind?
Answer: Result: binds

From PMC4797271, “The quorum-sensing regulator ComA from Bacillus subtilis activates transcription using topologically distinct DNA motifs”
